Laboratory results taken from article PMC11838012, “TRAM-LAG1-CLN8 family proteins are acyltransferases regulating phospholipid composition” (Science Advances, 2025).

How the values were obtained:
Assay in all cases: LC-MS/MS initial-rate acyltransferase assay
TLCD1 = biological target: T1, TLCD1 (Homo sapiens, UniProt Q96CP7); format: biochemical; settings: 100 uM oleoyl-CoA; pH 7.4, 30 C, 0.05% LMNG; shares the LPE site
T1 construct: full length, C-terminal FLAG and Strep tags kept; expressed in Flp-In T-REx 293 cells; purified in LMNG; monomer in micelles
T1 sequence (Q96CP7 36-247): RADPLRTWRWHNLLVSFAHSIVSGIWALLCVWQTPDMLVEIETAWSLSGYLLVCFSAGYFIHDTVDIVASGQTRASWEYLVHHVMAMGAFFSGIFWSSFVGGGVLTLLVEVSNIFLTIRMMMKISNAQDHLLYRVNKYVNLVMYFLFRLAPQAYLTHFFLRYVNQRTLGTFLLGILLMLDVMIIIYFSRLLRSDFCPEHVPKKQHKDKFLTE

[1] = substrate: CCCCCCCC/C=C\CCCCCCCC(=O)OC[C@@H](O)COP(=O)(O)OCCN; format: biochemical, Caenorhabditis elegans; settings: 100 uM myristoyl-CoA, pH 7.4, 30 C, 0.05% LMNG
[2] = substrate: CCCCCCCC/C=C\CCCCCCCC(=O)OC[C@@H](O)COP(=O)(O)OCCN; format: biochemical, Saccharomyces cerevisiae; settings: 100 uM palmitoleoyl-CoA, pH 7.4, 30 C, 0.05% LMNG
[3] = substrate: CCCCCCCC/C=C\CCCCCCCC(=O)OC[C@@H](O)COP(=O)(O)OCCN; format: biochemical, Homo sapiens; settings: 100 uM oleoyl-CoA, pH 7.4, 30 C, 0.05% LMNG

**Q.** With Cc1ncc(C[n+]2csc(CCO)c2C)c(N)n1 [thiamine] as the molecule, how does the “LC-MS/MS initial-rate acyltransferase assay” value (TLCD1) read?
**A.** The value was “a linear increase in the initial reaction rate (Vo) even at millimolar thiamine levels”.

B1: FLD-1 (Caenorhabditis elegans) (protein)
chain: MRQLAELLTDLLGPVPTMFLWVIVSFAFFRALQFIVRWYLFGKWTWPNFNFFDIRNRIRRRRRGGQEAENTENPPENEAEAGEQVEQEPEPDSRDLSAIPPNKKWRISNECVSLFHSVISGLWAAYALLYYKQLVQDLVNYRCDVAINLVLMSAGYLFHDLVDLLVNEQSARIIELLFHHVVVLSAFAVTMFFNRFLGVVVFGLLMELNSIFLHSRSLLNLYGVDKKSPSFRIIALLNMVTLFAFRLCVSAYLVYFVVVSIPDLEWYVSIINGLVIASLASTNTVLTYRLLAADGLLGSRRTRRTPAATAETQVGDVESGPLRTQVEDEDHHTIGVQTIHGTTEDATQTV
notes: codon-optimised, C-terminal His tag cut off by Factor Xa; expressed in S. cerevisiae BJ2168; purified in LMNG
**Q.** Which results are given for B1?
**A.** Km [1]: 10.1 µM; kcat [1]: 0.608 s⁻¹

B2: YPR114w (Saccharomyces cerevisiae S288C) (protein)
chain: MDVLLSLPQPELFKTTVIPFLANRNIIKSEAILSNLHSIFYVAIFYHIWFLFGKWILFPHLVKWKLDYDQKHNVKKDEKTTSERQAQHYKKKYTSLINQSSVHLISLLQSIVVLYYSLKFLLDPKASAEPYQTSHSRVFTENRDTQVICIFAIGYFVWDIYISTMYSTFPFVVHGIISTVVFCIGLKPYIQYYAPVFLMFELSNPSLNFRWFGIKFLPQKSKFCSLLLLLNNLTLMVVFFAARIAWGWFQIGKLCYDFYQVRNEPGFLVFDTIVILAGNFVLDILNVIWFSTMVSVAAKVLKKGESVDKVTKNEQ
notes: full length, C-terminal His tag cut off by Factor Xa; expressed in S. cerevisiae BJ2168; purified in LMNG
**Q.** With B2 as the molecule, how does the Km [2] read?
**A.** The Km was 16.7 µM.

**Q.** What about the kcat [2] of the same molecule?
**A.** The kcat was 2.225 s⁻¹.

B3: TLCD1 (Homo sapiens) (protein)
chain: RADPLRTWRWHNLLVSFAHSIVSGIWALLCVWQTPDMLVEIETAWSLSGYLLVCFSAGYFIHDTVDIVASGQTRASWEYLVHHVMAMGAFFSGIFWSSFVGGGVLTLLVEVSNIFLTIRMMMKISNAQDHLLYRVNKYVNLVMYFLFRLAPQAYLTHFFLRYVNQRTLGTFLLGILLMLDVMIIIYFSRLLRSDFCPEHVPKKQHKDKFLTE
notes: full length, C-terminal FLAG and Strep tags kept; expressed in Flp-In T-REx 293 cells; purified in LMNG; monomer in micelles
**Q.** How did the Km [3] turn out when B3 was run?
**A.** The Km was 67.5 µM.

**Q.** And the kcat [3]?
**A.** The kcat was 0.348 s⁻¹.
